As a reminder, the Kd is the free concentration of one partner at which half of the binding sites on the other are occupied at equilibrium, for simple one-to-one binding. Read a low Kd as higher affinity. What is called koff is the rate constant with which the complex falls apart. A higher koff goes with fast dissociation. Usually kon stands for the rate constant with which the complex forms. Low readings indicate slow association, high ones fast association. Broadly, the stoichiometry N is the number of molecules, sites or subunits per partner or assembly.

Values joined by “and” are separate entries in the source; they are usually repeats but may differ in a detail not shown here. Equal values may be shown once.

The target of test [1] is RPLL mutant of JIP1_(116–266) (R160E, P161A, L164A, L166A) (UniProt Q9UQF2). Briefly: NMR 15N CPMG relaxation dispersion.
The target in test [2] is c-Jun N-terminal kinase 1 (JNK1), inactive, unphosphorylated form (UniProt P45983). Kind of test: native MS.
Sequence of c-Jun N-terminal kinase 1 (JNK1), inactive, unphosphorylated form (UniProt P45983) (P45983 5-364): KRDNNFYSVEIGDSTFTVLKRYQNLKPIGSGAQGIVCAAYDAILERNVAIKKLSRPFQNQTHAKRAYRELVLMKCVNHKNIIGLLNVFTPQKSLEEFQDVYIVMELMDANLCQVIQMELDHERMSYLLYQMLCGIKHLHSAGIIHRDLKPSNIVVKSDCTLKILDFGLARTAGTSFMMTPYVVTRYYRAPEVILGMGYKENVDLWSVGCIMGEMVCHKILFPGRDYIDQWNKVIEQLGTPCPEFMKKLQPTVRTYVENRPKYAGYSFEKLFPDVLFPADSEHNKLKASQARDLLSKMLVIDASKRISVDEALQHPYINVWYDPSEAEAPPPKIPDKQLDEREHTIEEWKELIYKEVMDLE
The target of test [3] is T1, c-Jun N-terminal kinase 1 (JNK1), inactive, unphosphorylated form (UniProt P45983 5-364). Briefly: ITC. Background: ITC needs no label: the signal is the heat of the interaction.
T1 sequence (P45983 5-364): as above
Test [4] has as its target T1, c-Jun N-terminal kinase 1 (JNK1), …. Briefly: native MS.

“c-Jun N-terminal kinase 1 (JNK1), inactive, unphosphorylated form (from UniProt P45983 5-364) (enzyme)”: in test [1], the Kd turned out to be 2200 µM, the bound-state population pB is 1.6%, the exchange rate constant kex stood at 1100 s⁻¹ and the koff came out at 1080 s⁻¹. In test [1], this molecule returned a kon of 480000 M⁻¹ s⁻¹.

With “JIP1_(1–145) (from UniProt Q9UQF2 1-145) (domain or fragment)”, the stoichiometry N in test [2] is 1.

Molecule RPKRPTTLNLF [peptide corresponding to the D-motif of JIP1 (157RPKRPTTLNLF167)] displayed a Kd in test [3] of 0.217 µM.

B1: IL mutant of JIP1_(116–266) (I211A, L213A) (domain or fragment, UniProt Q9UQF2 116-266, looked up)
chain: ERAARRPGAGPPKAESGQEPASRGQGQSQGQSQGPGSGDTYRPKRPTTLNLFPQVPRSQDTLNNNSLGKKHSWQDRVSRSSSPLKTGEQTPPHEHACASDELPPQSGPAPTTDRGTSTDSPCRRSTATQMAPPGGPPAAPPGGRGHSHRDR
In test [3], B1 came in with a Kd of 0.082 µM and a dH of -10.7 kcal/mol. Also, the “stoichiometry N” value in test [4] came out at 1.

B2: JIP1_(116–266), the shortest construct comprising the D-motif (domain or fragment, UniProt Q9UQF2 116-266, looked up)
chain: ERAARRPGAGPPKAESGQEPASRGQGQSQGQSQGPGSGDTYRPKRPTTLNLFPQVPRSQDTLNNNSLGKKHSWQDRVSRSSSPLKTGEQTPPHEHICLSDELPPQSGPAPTTDRGTSTDSPCRRSTATQMAPPGGPPAAPPGGRGHSHRDR
Turning to B2, in test [3], binding was characterised by a dissociation constant (Kd) of 0.081 µM, the dH is -11.6 kcal/mol and the “ΔΔH (binding enthalpy against the D-motif peptide)” value is 4 kcal/mol. The “stoichiometry N” value in test [4] worked out at 1.

B3: JIP1_(1–266) (domain or fragment, UniProt Q9UQF2 1-266, looked up)
chain: MAERESGGLGGGAASPPAASPFLGLHIASPPNFRLTHDISLEEFEDEDLSEITDECGISLQCKDTLSLRPPRAGLLSAGGGGAGSRLQAEMLQMDLIDATGDTPGAEDDEEDDDEERAARRPGAGPPKAESGQEPASRGQGQSQGQSQGPGSGDTYRPKRPTTLNLFPQVPRSQDTLNNNSLGKKHSWQDRVSRSSSPLKTGEQTPPHEHICLSDELPPQSGPAPTTDRGTSTDSPCRRSTATQMAPPGGPPAAPPGGRGHSHRDR
B3: the “stoichiometry N” value in test [4] was 1 and 2 JNK1 per JIP1.
